The source of these data is patent US20100310646A1 (AARHUS UNIVERSITET, published 2010).

The target in assay [1] is T1, PA 937-1547 (fragment of human PAPP-A, residues 937-1547) (human, UniProt Q13219 1017-1627).
T1 sequence: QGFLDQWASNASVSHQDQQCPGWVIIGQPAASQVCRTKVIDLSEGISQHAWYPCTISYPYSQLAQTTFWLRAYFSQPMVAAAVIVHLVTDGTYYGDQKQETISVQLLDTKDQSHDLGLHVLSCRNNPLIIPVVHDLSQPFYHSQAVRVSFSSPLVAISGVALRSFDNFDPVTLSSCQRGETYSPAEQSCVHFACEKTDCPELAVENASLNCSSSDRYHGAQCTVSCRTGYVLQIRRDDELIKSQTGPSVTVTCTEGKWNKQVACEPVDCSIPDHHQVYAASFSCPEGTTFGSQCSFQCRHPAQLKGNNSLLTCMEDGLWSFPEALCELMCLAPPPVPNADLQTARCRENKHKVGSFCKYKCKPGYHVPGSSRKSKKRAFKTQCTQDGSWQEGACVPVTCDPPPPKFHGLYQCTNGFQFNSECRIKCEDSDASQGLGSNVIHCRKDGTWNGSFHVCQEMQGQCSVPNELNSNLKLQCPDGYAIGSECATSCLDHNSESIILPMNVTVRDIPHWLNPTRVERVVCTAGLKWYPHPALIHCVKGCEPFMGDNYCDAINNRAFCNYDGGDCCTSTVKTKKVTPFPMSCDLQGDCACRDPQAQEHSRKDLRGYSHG
The assay is described as follows: binding of PAC5 to fragments of human PAPP-A.

Assay [2] has as its target T2, PA 1-950 (fragment of human PAPP-A, residues 1-950) (human, UniProt Q13219 82-1030).
T2 sequence: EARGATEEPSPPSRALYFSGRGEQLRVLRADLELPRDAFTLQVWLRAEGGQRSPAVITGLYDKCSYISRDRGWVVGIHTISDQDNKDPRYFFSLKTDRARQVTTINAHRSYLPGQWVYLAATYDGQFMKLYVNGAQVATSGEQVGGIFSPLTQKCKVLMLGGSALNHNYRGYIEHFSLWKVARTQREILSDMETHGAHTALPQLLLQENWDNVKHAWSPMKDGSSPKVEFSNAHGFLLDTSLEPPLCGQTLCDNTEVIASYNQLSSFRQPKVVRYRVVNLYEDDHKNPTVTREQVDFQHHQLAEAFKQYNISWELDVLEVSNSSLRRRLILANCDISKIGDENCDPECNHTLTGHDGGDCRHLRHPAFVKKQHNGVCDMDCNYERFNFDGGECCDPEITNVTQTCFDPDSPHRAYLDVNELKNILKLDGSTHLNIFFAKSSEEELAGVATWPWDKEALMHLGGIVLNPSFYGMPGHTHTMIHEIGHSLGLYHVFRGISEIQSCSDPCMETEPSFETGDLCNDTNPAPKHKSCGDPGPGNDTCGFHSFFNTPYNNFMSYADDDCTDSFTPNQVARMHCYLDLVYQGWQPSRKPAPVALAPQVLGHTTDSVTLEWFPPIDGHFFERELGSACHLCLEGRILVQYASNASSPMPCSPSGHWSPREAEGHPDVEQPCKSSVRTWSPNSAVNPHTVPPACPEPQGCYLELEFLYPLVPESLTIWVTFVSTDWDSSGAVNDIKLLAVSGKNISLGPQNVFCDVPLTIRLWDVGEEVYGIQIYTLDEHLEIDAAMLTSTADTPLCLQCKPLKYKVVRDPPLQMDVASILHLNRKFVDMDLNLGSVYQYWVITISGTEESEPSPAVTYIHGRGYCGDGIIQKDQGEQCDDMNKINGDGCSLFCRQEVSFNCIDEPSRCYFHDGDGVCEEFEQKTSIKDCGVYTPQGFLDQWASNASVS
The assay is described as follows: binding of PAC5 to fragments of human PAPP-A.

For assay [3], the target named is T3, PA 1-599 (fragment of human PAPP-A, residues 1-599) (human, UniProt Q13219 82-679).
T3 sequence: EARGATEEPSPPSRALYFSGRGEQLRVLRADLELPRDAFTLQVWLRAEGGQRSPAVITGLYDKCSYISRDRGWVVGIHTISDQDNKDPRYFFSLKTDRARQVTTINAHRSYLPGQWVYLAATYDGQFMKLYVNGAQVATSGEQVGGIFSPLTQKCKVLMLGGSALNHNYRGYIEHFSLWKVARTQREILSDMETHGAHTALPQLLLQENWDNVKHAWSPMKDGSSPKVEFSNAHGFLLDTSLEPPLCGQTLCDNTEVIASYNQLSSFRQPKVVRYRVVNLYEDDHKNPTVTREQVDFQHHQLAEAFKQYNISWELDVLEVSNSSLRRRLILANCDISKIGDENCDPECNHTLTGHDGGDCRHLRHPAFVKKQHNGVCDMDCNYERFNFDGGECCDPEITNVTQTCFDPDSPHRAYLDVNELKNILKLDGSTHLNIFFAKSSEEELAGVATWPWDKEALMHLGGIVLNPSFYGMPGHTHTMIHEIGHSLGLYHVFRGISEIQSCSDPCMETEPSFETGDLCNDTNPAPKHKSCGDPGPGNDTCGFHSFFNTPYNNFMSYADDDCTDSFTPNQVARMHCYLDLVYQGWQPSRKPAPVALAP
The assay is described as follows: binding of PAC5 to fragments of human PAPP-A.

The target in assay [4] is T4, human pregnancy-associated plasma protein-A (PAPP-A) (human, UniProt Q13219 82-1627).
T4 construct: Recombinant, from 293T cells; also called human PAPP-A; full-length PAPP-A
The assay is described as follows: ELISA. For orientation: An ELISA detects its analyte on a solid surface through an enzyme-linked reagent.

The target of assay [5] is human PAPP-A(D1484A) (human, UniProt Q13219 82-1627). The assay is described as follows: ELISA, PAPP-A mutant captured with polyclonal PAPP-A antibodies. As for the experimental part: (§1) A, PAC1 binding to human PAPP-A/PAPP-A2 chimeras or truncated human PAPP-A variants analyzed by ELISA. Sequence derived from PAPP-A is shown by open bars, and absence of binding (−) or binding (+) is indicated. […] Samples with or without EDTA (10 mM) were injected (120 s) followed by dissociation (180 s) (solid lines). […] The absence of binding (−) or binding (+) is indicated. PAC5, which was used as a positive control, binds to an epitope of PAPP-A located N-terminal to CCP1.
(§2) Determination of antibody specificity and mapping of antibody binding—Mapping of antibody binding was carried out by ELISA using PAPP-A/PAPP-A2 chimeric proteins, and mutated variants of PAPP-A. The proteins were immobilized with polyclonal PAPP-A antibodies, and binding of phage antibodies were analyzed as detailed above.

In assay [6] the target is human PAPP-A(D1502A) (human, UniProt Q13219 82-1627). The assay is described as above. As for the experimental part: as §1, §2
Assay [7] concerns the target human PAPP-A(D1499A) (human, UniProt Q13219 82-1627). Described as above. As for the experimental part: as §1, §2

B1: PAC5 (PAPP-A non-exosite antibody, scFv) (scFv)
scFv: EVQLLESGGGLVQPGGSLRLSCAASGFTFSSYAMSWVRQAPGKGLEWVSAISPAGVMTQYADSVKGRFTISRDNSKNTLYLQMNSLRAEDTAVYYCAKQQGGFDYWGQGTLVTVSSGGGGSGGGGSGGGGSTDIQMTQSPSSLSASVGDRVTITCRASQSISSYLNWYQQKPGKAPKLLIYRASALQSGVPSRFSGSGSGTDFTLTISSLQPEDFATYYCQQPIARPPTFGQGTKVEIKRAAAHHHHHHGAAEQKLISEEDLNGAA
notes: Obtained by screening on full-length human PAPP-A and used as a control antibody in the scFv format; also called clone PAC5
Consider B1, for which the binding result is reported as “no binding” in assay [1]; “binds” in assay [2]; “no binding” in assay [3]; “binds” in assay [4]; “binds” in assay [5]; “binds” in assay [6]. Moreover, the binding result in assay [7] was “binds”.
